Reference: patent publication US10012655B2, “Method for quantitating total HMGB1 protein in biological samples” (INSTITUT PASTEUR, priority 2008, dated 2018)

System: iDCs
Assay: Phenotypic maturation of iDCs cultured with rh-HMGB1 or LPS (flow cytometry)
Format: cell-based, human
Description: FIG. 1 (a)-(e). aNK cells induce the maturation of primary immature HIV-1-infected DCs. (a) iDCs, generated from purified CD14^+ monocytes in the presence of IL-4 and GM-CSF, were cocultured during 24 h with aNK cells at different ratios. DC survival was determined by flow cytometry with the 7-AAD assay. Surviving DCs were identified as 7AAD^−CD56^− cells. Data represent three independent experiments and values are means±sd. (b) aNK cells induce the maturation of iDCs. Flow cytometry analysis of iDCs, which were either infected with R5-HIV-1 BaL (1 ng/ml of p24) for 3 h or uninfected, were incubated with rNK cells or aNK cells at a ratio of 1:5. Co-staining with HLA-DR and CD86 specific antibodies allowed the identification of mature DCs (CD86^brightHLA-DR^bright) Data from a representative experiment out of three independent experiments are shown. (c) The conditions of infection used in this study were those of a productive infection of iDCs, as shown at day 3 by a significant p24 detection in culture supernatant of infected iDCs and intracellular detection by flow cytometry of p24 in DC targeted by CD40 expression. […] The proportion of mDCs induced by LPS (DC0) (78.1% CD86^brightHLA-DR^bright) is shown as a positive control. […]
FIG. 3 (a)-(e). aNK-dependent maturation of HIV-1-infected iDCs is mediated by HMGB1 and involves RAGE. […] The maturation status of DCs was determined by flow cytometry with CD86 and HLA-DR—specific antibodies. […] Cells were then stained with anti-CD86, -HLA-DR, -CD80, -CD83, DC-LAMP and -CD40 antibodies and analyzed by flow cytometry. (c) Influence of rh-HMGB1 on cytokine and chemokine production (determined by MAP) by DCs. iDCs (10^6 cells/ml) were incubated for 48 h in medium or in presence of rh-HMGB1 (1 or 10 μg/ml). […] (e) iDC, DC0, uninfected or HIV-1-infected iDC cocultured for 24 h with aNK cells, were incubated with rh-HMGB1 (1 μg/ml) and subsequently stained with anti-RAGE antibodies and analyzed by flow cytometry. […]

B1: rh-HMGB1: recombinant human HMGB1 protein (R&D Systems) (protein, UniProt P09429 1-215, looked up)
High mobility group protein B1: MGKGDPKKPRGKMSSYAFFVQTCREEHKKKHPDASVNFSEFSKKCSERWKTMSAKEKGKFEDMAKADKARYEREMKTYIPPKGETKKKFKDPNAPKRPPSAFFLFCSEYRPKIKGEHPGLSIGDVAKKLGEMWNNTAADDKQPYEKKAAKLKEKYEKDIAAYRAKGKPDAAKKGVVKAEKSKKKKEEEEDEEDEEDEEEEEDEEDEDEEEDDDDE
10 μg/ml, 48 h of culture, medium alone 65%
  percentage of CD86bright HLA-DRbright DCs: 71%
24 h with 1 to 10 μg/ml, similar at 48 h
  phenotypic maturation of iDC: did not induce phenotypic maturation of iDC
rh-HMGB1-treated DCs, 48 h, compared with DC0
  maturation status by CD80, CD83 and DC-lamp expression: not fully mature
